# Measured values published in US20190307868A1.
# How the values were obtained:
# Conditions in all cases: remark: other sources report otherwise
# HLA-B08:01 (human) [1] = experiment: peptide-MHC-I complex dissociation half-life, 125I-b2m, 37 C
# HLA-B08:01 (human) [2] = experiment: competitive inhibition of 125I-labeled probe peptide binding to purified HLA class I
# HLA-A02:01 (human) [3] = experiment: pMHC-I dissociation half-life, 125I-b2m
# HLA-A02:01 (human) [4] = experiment: competition with 125I-labelled probe peptide, purified HLA
binder,measurement,setting,value
SVCFFFFSV [… (CNOT1(+1))],Stability (T1/2 (h)),HLA-B08:01 (human) [1],0 h
"QLIMQLMPF [… (EGFR, T790M)]",Stability (T1/2 (h)),HLA-B08:01 (human) [1],0 h
"WLHKRGKYI [… (AKT1, E17K)]",Stability (T1/2 (h)),HLA-B08:01 (human) [1],1.3 h
same,IC50,HLA-B08:01 (human) [2],0.417 µM
"FLPSTLKSL [… (ESR1, S463P)]",Stability (T1/2 (h)),HLA-B08:01 (human) [1],0 h
same,IC50,HLA-B08:01 (human) [2],1.97 µM
LVVVGACGV,Stability (T1/2 (h)),HLA-A02:01 (human) [3],0.6 h
same,IC50,HLA-A02:01 (human) [4],1.21 µM
LVVVGADGV,Stability (T1/2 (h)),HLA-A02:01 (human) [3],0 h
same,IC50,HLA-A02:01 (human) [4],1.19 µM
LVVVGAVGV,Stability (T1/2 (h)),HLA-A02:01 (human) [3],0.6 h
"SLPRFILMEL [… (ALK, L1196M)]",Stability (T1/2 (h)),HLA-B08:01 (human) [1],0 h
